These results are taken from patent publication US20220257733A1, “ANTIGENIC POLYPEPTIDES AND METHODS OF USE THEREOF” (AGENUS INC., priority 2019, published 2022).

Non-standard residues stand in square brackets, D forms with d. No end group written: not given here. pT = C[C@@H](OP(=O)(O)O)[C@H](N)C(=O)O; pS = N[C@@H](COP(=O)(O)O)C(=O)O

For one experiment, the target named is HLA A*02:01 (Homo sapiens, UniProt P04439, D140Y/D185E/D98H/E176V/E277Q/G131W/G231S/I119V/I121R/I166T/I218V/L300P/L318F/N151K/N90K/P208A/P217A/Q86G/Q94H/R138H/R169H/T345S). The experiment is described as follows: AlphaScreen assay of peptide binding to HLA A*02:01. Set-up: key to Kd in nM A*02:01: NT means that binding was not tested; NB means no binding was detected; LB stands for low binding and indicates that while some binding was observed, it was below the level that would allow accurate calculation of a Kd. The note with it: biotinylated HLA A*02:01 with excess β2m, Michaelis-Menten fit. On the procedure:
(§1) An AlphaScreen® assay was used to evaluate the binding of peptides to HLA molecules. Donor beads conjugated with streptavidin, and acceptor beads conjugated with the anti-human HLA class I antibody W6/32, were used to assess peptide binding. Biotinylated HLAs (A*02:01, B*07:02, C*07:01, or C*07:02) were mixed with a fixed excess of β2m and the mixtures added to each well of a 384-well microplate. Serial dilutions of the synthesized phosphopeptides were added to the wells, and the resultant HLA/β2/peptide mixtures were incubated overnight at 18° C. W6/32 conjugated acceptor beads were subsequently added to the wells, and the mixture was incubated for 1 hour at 21° C. Streptavidin conjugated donor beads were then added to the wells, and the mixture was incubated for a further 1 hour at 21° C.
(§2) The microplate was read using the PerkinElmer® plate reader, and data were plotted using the Michaelis-Menten equation to determine the Kd for each phosphopeptide.
Table 5 lists the Kd of each of the selected phosphopeptides to the indicated HLAs (A*02:01, B*07:02, C*07:01, or C*07:02). NT means that binding was not tested. NB means no binding was detected. […] In each case, the phosphopeptides bound as indicated below.
(In general: Alpha assays give light when donor and acceptor beads are brought close together.)

Experiment [1] addresses T1, Biotinylated HLA-A*02:01 with β2m (human, biotinylated (site not stated)).
T1 construct: MHC class I heavy chain mixed with excess β2m
Nature of the experiment: AlphaScreen; biotinylated HLA + excess β2m + peptide dilutions, W6/32 acceptor beads, streptavidin donor beads. On the procedure: as §1, §2

The target in experiment [2] is T1, Biotinylated HLA-A*02:01 with β2m. The experiment is described as follows: AlphaScreen; biotinylated HLA + excess β2m + peptide dilutions, W6/32 acceptor beads, streptavidin donor beads; Michaelis-Menten fit. On the procedure:
as §1, §2

Consider `CC(C)C[C@H](NC(=O)[C@@H](NC(=O)[C@H](CC(C)C)NC(=O)[C@@H]1CCCN1C(=O)[C@H](COP(=O)(O)O)NC(=O)[C@@H]1CCCN1C(=O)[C@@H](NC(=O)[C@H](CCCNC(=N)N)NC(=O)[C@@H]1CCCN1C(=O)[C@@H](N)CCC(N)=O)[C@@H](C)O)C(C)C)C(=O)O` [compound 657], for which, on HLA A*02:01, the “Kd in nM A*02:01” value is on record as “NB”. On the same count and under the same terms, the entry for `CC(C)C[C@H](NC(=O)[C@H](COP(=O)(O)O)NC(=O)[C@H](CCCNC(=N)N)NC(=O)[C@H](CCCCN)NC(=O)[C@H](CO)NC(=O)[C@H](CC(C)C)NC(=O)[C@H](Cc1ccccc1)NC(=O)[C@@H]1CCCN1C(=O)[C@@H](N)CO)C(=O)O` [compound 1157] is “NB”. With `CC(C)C[C@H](NC(=O)[C@H](CCC(=O)O)NC(=O)[C@H](CCC(=O)O)NC(=O)[C@H](CC(C)C)NC(=O)[C@H](COP(=O)(O)O)NC(=O)CNC(=O)[C@H](Cc1c[nH]cn1)NC(=O)[C@H](Cc1ccccc1)NC(=O)[C@H](CC(C)C)NC(=O)[C@@H](N)CCCCN)C(=O)O` [compound 424], on HLA A*02:01, the dissociation constant Kd was 203 nM. `CC(C)[C@H](NC(=O)CNC(=O)[C@@H]1CCCN1C(=O)[C@@H]1CCCN1C(=O)[C@@H](NC(=O)[C@H](CCCNC(=N)N)NC(=O)[C@@H]1CCCN1C(=O)[C@H](C)N)[C@@H](C)OP(=O)(O)O)C(=O)N[C@H](C(=O)N[C@@H](Cc1ccccc1)C(=O)O)[C@@H](C)O` [compound 120]: the “Kd in nM A*02:01” value at HLA A*02:01 is “NB”. With `CC[C@H](C)[C@H](NC(=O)[C@H](CO)NC(=O)[C@H](CCCNC(=N)N)NC(=O)[C@H](COP(=O)(O)O)NC(=O)[C@H](CC(C)C)NC(=O)[C@@H](N)Cc1ccccc1)C(=O)N1CCC[C@H]1C(=O)N[C@@H](CO)C(=O)N[C@@H](CC(C)C)C(=O)O` [compound 228], at HLA A*02:01, the dissociation constant (Kd) is 641 nM.

For `CSCC[C@H](NC(=O)[C@H](CC(C)C)NC(=O)[C@@H](N)CCC(N)=O)C(=O)N[C@H](C(=O)N[C@@H](CC(C)C)C(=O)N[C@@H](CCC(=O)O)C(=O)N[C@@H](CC(N)=O)C(=O)N[C@@H](CCCCN)C(=O)N[C@@H](CC(C)C)C(=O)O)[C@@H](C)OP(=O)(O)O` [compound 654], at HLA A*02:01, the Kd was 231 nM.

Turning to `CC[C@H](C)[C@H](NC(=O)[C@@H]1CCCN1C(=O)[C@H](COP(=O)(O)O)NC(=O)[C@H](CCCNC(=N)N)NC(=O)[C@@H]1CCCN1C(=O)[C@@H](N)CO)C(=O)N[C@@H](CO)C(=O)N1CCC[C@H]1C(=O)N[C@@H](CCC(=O)O)C(=O)N[C@@H](CC(C)C)C(=O)O` [compound 1179], the “Kd in nM A*02:01” value on HLA A*02:01 is listed as “NB”.

Consider `CC[C@H](C)[C@H](NC(=O)[C@H](Cc1ccc(O)cc1)NC(=O)[C@H](COP(=O)(O)O)NC(=O)[C@H](CC(C)C)NC(=O)[C@H](CC(C)C)NC(=O)[C@@H](N)CCCCN)C(=O)N[C@@H](CCC(N)=O)C(=O)N[C@@H](CCCNC(=N)N)C(=O)N[C@@H](CC(C)C)C(=O)O` [compound 433], for which the Kd at HLA A*02:01 is 188 nM.

B1: SRKsFVFEL (peptide)
peptide: SRK[pS]FVFEL
notes: predicted HLA-B*08:01 (not among the HLAs tested)
As for B1, the binding result in experiment [1] is reported as “no binding”. Turning to APR[pT]PPGVTF (predicted HLA-B*07:02) [APRtPPGVTF], the binding result in experiment [1] is recorded as “no binding”. For the molecule KLL[pS]YIQRL (predicted HLA-A*02:01) [KLLsYIQRL], the dissociation constant (Kd) in experiment [2] was 188 nM. Same read-out and setting: the figure for KLFHG[pS]LEEL (predicted HLA-A*02:01) [KLFHGsLEEL] is 203 nM.

B2: HRVsVILKL (peptide)
peptide: HRV[pS]VILKL
notes: predicted HLA-B*14:01 (not among the HLAs tested)
B2: in experiment [1], the binding result is listed as “no binding”.

B3: YRLsPEPTPL (peptide)
peptide: YRL[pS]PEPTPL
notes: predicted HLA-C*07:02 (not tested on it)
As to B3, the binding result in experiment [1] is on record as “no binding”. For the molecule QLM[pT]LENKL (predicted HLA-A*02:01) [QLMtLENKL], in experiment [2], the Kd was found to be 231 nM. With SPFLSKR[pS]L (predicted HLA-B*07:02) [SPFLSKRsL], the binding result in experiment [1] is listed as “no binding”. With FL[pS]RSIPSL (predicted HLA-A*02:01) [FLsRSIPSL], in experiment [2], the Kd worked out at 641 nM. As for SPR[pS]PISPEL (predicted HLA-B*07:02) [SPRsPISPEL], in experiment [1], the binding result was “no binding”.

For orientation: Kd means the constant that tells how readily two partners part at equilibrium.
